Where two headings read alike, the source gives them in different places.
Assays:
[1] = molecular target: T1, FoxM1-DBD (FoxM1C 222-360) (UniProt Q08050 222-360); test: competition fluorescence anisotropy
T1 sequence: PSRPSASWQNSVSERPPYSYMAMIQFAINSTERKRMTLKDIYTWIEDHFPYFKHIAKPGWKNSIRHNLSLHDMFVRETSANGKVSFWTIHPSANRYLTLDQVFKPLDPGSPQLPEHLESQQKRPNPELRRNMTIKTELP

[2] = molecular target: T2, FoxM1-DBD (FoxM1C 222-360), crystal (UniProt Q08050 222-360); test: X-ray crystallography 2.2 A
T2 sequence: T1 sequence

[3] = molecular target: T1, FoxM1-DBD (FoxM1C 222-360); test: fluorescence anisotropy
[4] = molecular target: T1, FoxM1-DBD (FoxM1C 222-360); test: fluorescence anisotropy; remark: listed apart in the source

B1: 1x (dsDNA)
DNA 1: CCGATTGTTTAGCCCGTGCC
DNA 2: GGCACGGGCTAAACAATCGG
For B1, which IC50 [1] is on record?
The IC50 was 7 µM.

B2: Fm1-2x-19nt-aa/tt (dsDNA)
DNA 1: AAATTGTTTATAAACAGCCCG
DNA 2: TTCGGGCTGTTTATAAACAAT
Does B2 bind [2]?
Result: binds

B3: 11 bp consensus, TAMRA (dsDNA)
DNA 1: CCATAAACAAC
DNA 2: GTTGTTTATGG
B3 was tested. Which Kd [3] did it give?
Its Kd is 7 ± 0.3 µM.

And the Kd [4]?
Its Kd is 7.5 ± 0.8 µM.

Source: publication PMC2910063
